These results are taken from article doi:10.1101/2024.09.02.610668 (bioRxiv, 2024).

The target in the experiment is G. gallus FANCD2 (G. gallus, UniProt Q68Y81 1-1439). In words: cross-linking.
G. gallus FANCD2, sequence (Q68Y81 whole entry): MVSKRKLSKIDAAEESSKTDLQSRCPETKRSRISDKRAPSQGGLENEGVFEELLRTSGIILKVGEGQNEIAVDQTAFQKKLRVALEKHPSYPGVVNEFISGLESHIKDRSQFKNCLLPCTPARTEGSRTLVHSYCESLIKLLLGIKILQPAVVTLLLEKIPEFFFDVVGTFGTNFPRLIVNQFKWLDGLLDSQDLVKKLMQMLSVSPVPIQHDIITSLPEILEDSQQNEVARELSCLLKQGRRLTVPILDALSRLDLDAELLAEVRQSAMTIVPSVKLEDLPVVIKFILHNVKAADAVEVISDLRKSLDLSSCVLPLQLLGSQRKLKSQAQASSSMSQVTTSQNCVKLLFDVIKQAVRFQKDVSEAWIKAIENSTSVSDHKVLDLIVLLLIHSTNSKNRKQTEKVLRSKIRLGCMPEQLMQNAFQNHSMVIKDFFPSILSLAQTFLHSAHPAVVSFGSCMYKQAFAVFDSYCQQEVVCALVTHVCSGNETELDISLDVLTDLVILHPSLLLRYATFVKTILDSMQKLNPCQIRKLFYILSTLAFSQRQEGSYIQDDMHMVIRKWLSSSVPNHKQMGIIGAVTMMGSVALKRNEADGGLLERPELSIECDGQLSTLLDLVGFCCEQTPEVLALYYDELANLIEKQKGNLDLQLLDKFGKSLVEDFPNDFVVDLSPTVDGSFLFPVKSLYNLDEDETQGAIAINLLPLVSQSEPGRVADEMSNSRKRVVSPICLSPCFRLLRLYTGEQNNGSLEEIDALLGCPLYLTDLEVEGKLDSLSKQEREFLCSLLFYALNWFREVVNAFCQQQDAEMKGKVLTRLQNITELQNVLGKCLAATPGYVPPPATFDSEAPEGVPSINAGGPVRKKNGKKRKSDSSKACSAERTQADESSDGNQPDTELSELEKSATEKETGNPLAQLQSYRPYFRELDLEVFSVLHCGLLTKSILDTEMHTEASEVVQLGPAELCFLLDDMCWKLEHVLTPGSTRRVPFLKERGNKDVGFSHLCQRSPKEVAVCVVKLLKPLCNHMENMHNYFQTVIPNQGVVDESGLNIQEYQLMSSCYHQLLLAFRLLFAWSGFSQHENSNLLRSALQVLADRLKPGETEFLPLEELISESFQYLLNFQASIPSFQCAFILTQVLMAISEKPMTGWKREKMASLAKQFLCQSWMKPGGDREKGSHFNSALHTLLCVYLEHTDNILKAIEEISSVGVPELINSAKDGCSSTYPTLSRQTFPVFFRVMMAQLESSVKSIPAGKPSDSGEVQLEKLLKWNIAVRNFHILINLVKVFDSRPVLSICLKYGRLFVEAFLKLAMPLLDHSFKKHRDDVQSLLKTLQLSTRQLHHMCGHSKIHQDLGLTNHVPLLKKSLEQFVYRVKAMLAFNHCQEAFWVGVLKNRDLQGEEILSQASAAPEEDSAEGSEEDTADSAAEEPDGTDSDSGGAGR

B1: G. gallus FANCI, wild type (natural protein, UniProt B0I564 1-1338, looked up)
chain: MAQRILQLAAEGSPERLQEALQGLTEGELGDMVTRQALRGRETAALLKGIFKGSPCSQQSGVLRRLQVYKHCVSLVESGDLHVGKVSEIIGLLMLEARQLPGHALAELATLFVEVIKRGSLSNGKSLELFSTVLTALSNSKESLAYGKGELNGEEFKKQLINTLCSSKWDPQCVIHLANMFRDIPLSGEELQFVVEKVLRMFSKLDLQEIPPLVYQLLLLSAKGSKKTVLEGIISFFNQLDKRQKEEQRVPQSADLEVATVPLDQLRHVEGTVILHIVSAINLDQDIGEELIKHLKTEQQKDPGKALCPFSVSLLLSTAVKHRLQEQIFDFLKTSITRSCKDLQILQASKFLQDLCPQQYDVTAVILEVVKNSAFGWDHVTQGLVDLGFSLMESYEPKKSFGGKAAETNLGLSKMPAQQACKLGASILLETFKVHEPIRSDILEQVLNRVLTKAASPVSHFIDLLSNIVVSAPLVLQNSSSRVTETFDNLSFLPIDTVQGLLRAVQPLLKVSMSVRDSLILVLQKAIFSRQLDARKAAVAGFLLLLRNFKILGSLTSSQCSQAIGATQVQADVHACYNSAANEAFCLEILGSLRRCLSQQADVRLMLYEGFYDVLRRNSQLASSIMETLLSQIKQYYLPQQDLLPPLKLEGCIMAQGDQIFLQEPLAHLLCCIQHCLAWYKSTVHLCKGAEDEEEEEDVGFEQNFEEMLESVTRRMIKSELEDFELDKSADFSPSSGVGVKNNIYAIQVMGICEVLIEYNFKIGNFSKNKFEDVLGLFTCYNKLSEILKEKAGKNKSTLGNRIARSFLSMGFVSTLLTALFRDNAQSHEESLAVLRSSTEFMRYAVSVALQKVQQLEEMGQTDGPDGQNPEKMFQNLCKITRVLLWRYTSIPTAVEESGKKKGKSISLLCLEGLLRIFNTMQQLYAARIPQFLQALDITDGDAEEADINVTEKAAFQIRQFQRSLVNQLSSAEDDFNSKETQLLITILSTLSKLLDPGSQQFLQFLTWTVKICKENALEDLSCCKGLLTLLFSLHVLYKSPVSLLRELAQDIHACLGDIDQDVEIESRSHFAIVNVKTAAPTVCLLVLGQADKVLEEVDWLIKRLTILGSDTSEDSTQASNQTQALEKGVILQLGTLLTVFHELVQTALPAGSCVDSLLRSLSKTYAILTSLIKHYIQACRSTSNTVPGRLEKLVKLSGSHLTPQCYSFITYVQNIHSESLSFAEEKKKKKKEDETAVVSTVMAKVLRDTKPIPNLIFAIEQYEKFLIHLSKKSKVNLMQYMKLSTSRDFRINASMLDSVLQEQNTEDAENEPDNNQSGTAEQPDENQEPQKKRRRKK
B1: the binding result is listed as “binds”.

B2: G. gallus FANCI, phosphomimetic S558D, S561D, T567D (natural protein, UniProt B0I564 1-1338, looked up)
chain: MAQRILQLAAEGSPERLQEALQGLTEGELGDMVTRQALRGRETAALLKGIFKGSPCSQQSGVLRRLQVYKHCVSLVESGDLHVGKVSEIIGLLMLEARQLPGHALAELATLFVEVIKRGSLSNGKSLELFSTVLTALSNSKESLAYGKGELNGEEFKKQLINTLCSSKWDPQCVIHLANMFRDIPLSGEELQFVVEKVLRMFSKLDLQEIPPLVYQLLLLSAKGSKKTVLEGIISFFNQLDKRQKEEQRVPQSADLEVATVPLDQLRHVEGTVILHIVSAINLDQDIGEELIKHLKTEQQKDPGKALCPFSVSLLLSTAVKHRLQEQIFDFLKTSITRSCKDLQILQASKFLQDLCPQQYDVTAVILEVVKNSAFGWDHVTQGLVDLGFSLMESYEPKKSFGGKAAETNLGLSKMPAQQACKLGASILLETFKVHEPIRSDILEQVLNRVLTKAASPVSHFIDLLSNIVVSAPLVLQNSSSRVTETFDNLSFLPIDTVQGLLRAVQPLLKVSMSVRDSLILVLQKAIFSRQLDARKAAVAGFLLLLRNFKILGSLTSDQCDQAIGADQVQADVHACYNSAANEAFCLEILGSLRRCLSQQADVRLMLYEGFYDVLRRNSQLASSIMETLLSQIKQYYLPQQDLLPPLKLEGCIMAQGDQIFLQEPLAHLLCCIQHCLAWYKSTVHLCKGAEDEEEEEDVGFEQNFEEMLESVTRRMIKSELEDFELDKSADFSPSSGVGVKNNIYAIQVMGICEVLIEYNFKIGNFSKNKFEDVLGLFTCYNKLSEILKEKAGKNKSTLGNRIARSFLSMGFVSTLLTALFRDNAQSHEESLAVLRSSTEFMRYAVSVALQKVQQLEEMGQTDGPDGQNPEKMFQNLCKITRVLLWRYTSIPTAVEESGKKKGKSISLLCLEGLLRIFNTMQQLYAARIPQFLQALDITDGDAEEADINVTEKAAFQIRQFQRSLVNQLSSAEDDFNSKETQLLITILSTLSKLLDPGSQQFLQFLTWTVKICKENALEDLSCCKGLLTLLFSLHVLYKSPVSLLRELAQDIHACLGDIDQDVEIESRSHFAIVNVKTAAPTVCLLVLGQADKVLEEVDWLIKRLTILGSDTSEDSTQASNQTQALEKGVILQLGTLLTVFHELVQTALPAGSCVDSLLRSLSKTYAILTSLIKHYIQACRSTSNTVPGRLEKLVKLSGSHLTPQCYSFITYVQNIHSESLSFAEEKKKKKKEDETAVVSTVMAKVLRDTKPIPNLIFAIEQYEKFLIHLSKKSKVNLMQYMKLSTSRDFRINASMLDSVLQEQNTEDAENEPDNNQSGTAEQPDENQEPQKKRRRKK
Take B2: the binding result is on record as “binds”.
